Data published in paper PMC10286459, “The development of an anti-cancer peptide M1-21 targeting transcription factor FOXM1” (Cell & Bioscience, 2023).

Key:
[1] = target: GFP-FOXM1(688-748) (human); experiment: MST; GFP-fused FOXM1 protein as the fluorescent partner, synthesized peptide varied from 0.030 to 1000 µM; PBST (1×PBS 0.01 M, 0.05% Tween-20); 25 °C; Monolith NT.115, LED power 60%, medium MST power
GFP-FOXM1 (human) = GFP-FOXM1 (human) (UniProt Q08050); experiment: as above
[2] = target: endogenous FOXM1 protein (human (endogenous in 293T and MDA-MB-231)) (UniProt Q08050)
Sequence of endogenous FOXM1 protein (human (endogenous in 293T and MDA-MB-231)) (Q08050 whole entry): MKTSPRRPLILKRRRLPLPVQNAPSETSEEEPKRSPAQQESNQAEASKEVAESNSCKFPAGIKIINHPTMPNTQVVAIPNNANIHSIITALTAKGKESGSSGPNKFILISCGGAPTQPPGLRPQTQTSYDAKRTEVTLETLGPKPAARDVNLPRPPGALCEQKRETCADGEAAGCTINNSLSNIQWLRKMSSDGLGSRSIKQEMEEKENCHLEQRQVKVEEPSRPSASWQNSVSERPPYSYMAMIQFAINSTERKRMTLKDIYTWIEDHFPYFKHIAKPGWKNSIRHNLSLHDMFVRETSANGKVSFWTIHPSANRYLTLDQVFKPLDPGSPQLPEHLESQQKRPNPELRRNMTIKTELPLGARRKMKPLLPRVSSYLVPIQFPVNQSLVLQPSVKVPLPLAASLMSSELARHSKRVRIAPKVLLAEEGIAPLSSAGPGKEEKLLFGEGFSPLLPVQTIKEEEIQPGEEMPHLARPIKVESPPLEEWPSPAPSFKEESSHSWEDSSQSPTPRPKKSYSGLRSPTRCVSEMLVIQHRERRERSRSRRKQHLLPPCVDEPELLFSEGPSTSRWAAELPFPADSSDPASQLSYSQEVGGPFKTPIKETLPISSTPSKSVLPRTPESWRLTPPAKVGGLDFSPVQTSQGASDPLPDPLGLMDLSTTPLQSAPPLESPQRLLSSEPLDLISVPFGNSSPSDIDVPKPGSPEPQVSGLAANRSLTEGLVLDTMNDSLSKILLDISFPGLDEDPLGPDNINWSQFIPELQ

[3] = target: endogenous FOXM1 protein (human (endogenous in 293T and MDA-MB-231)) (UniProt Q08050); remark: listed apart in the source

Sequence of GFP-FOXM1 (human) (Q08050 other isoform, or with tags, fused parts or gaps): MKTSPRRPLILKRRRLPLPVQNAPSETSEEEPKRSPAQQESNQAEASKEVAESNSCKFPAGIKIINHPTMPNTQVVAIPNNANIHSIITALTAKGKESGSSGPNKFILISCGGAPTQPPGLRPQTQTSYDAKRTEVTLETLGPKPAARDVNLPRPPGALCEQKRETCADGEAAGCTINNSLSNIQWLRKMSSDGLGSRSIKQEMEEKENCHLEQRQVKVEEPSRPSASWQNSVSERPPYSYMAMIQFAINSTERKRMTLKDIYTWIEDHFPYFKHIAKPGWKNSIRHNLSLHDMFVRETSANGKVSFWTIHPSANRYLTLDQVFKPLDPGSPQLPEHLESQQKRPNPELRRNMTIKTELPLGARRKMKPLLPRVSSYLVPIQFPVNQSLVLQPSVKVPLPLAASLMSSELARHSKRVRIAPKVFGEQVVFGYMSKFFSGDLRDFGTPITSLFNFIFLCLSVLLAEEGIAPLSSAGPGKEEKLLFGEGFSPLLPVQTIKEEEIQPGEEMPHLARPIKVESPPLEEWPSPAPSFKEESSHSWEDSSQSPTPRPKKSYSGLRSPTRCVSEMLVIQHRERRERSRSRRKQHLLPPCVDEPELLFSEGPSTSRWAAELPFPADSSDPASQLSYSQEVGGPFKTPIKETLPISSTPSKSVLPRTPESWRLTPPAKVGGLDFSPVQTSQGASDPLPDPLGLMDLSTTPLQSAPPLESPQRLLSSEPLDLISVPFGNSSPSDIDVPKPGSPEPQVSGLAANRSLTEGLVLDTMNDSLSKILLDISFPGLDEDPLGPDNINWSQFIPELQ

Question: How did the Kd [1] turn out when “TAT-96-116 (from UniProt Q08050 96-116) (peptide)” was run?
Answer: 2.8 µM

Question: For “TAT-101-121 (from UniProt Q08050 101-121) (peptide)”, which Kd [1] is on record?
Answer: 5.5 µM

Question: How did the Kd (GFP-FOXM1 (human)) turn out when “TAT-106-126 (from UniProt Q08050 106-126) (peptide)” was run?
Answer: 7.1 µM

Question: What about the Kd [1] of the same substance?
Answer: 3.9 µM

Question: What about the IC50 of cell viability, MDA-MB-231 cells, 48 h (trypan blue) [2] of the same substance?
Answer: 53.4 µM

Question: And the IC50 of cell viability, MDA-MB-231 cells, 48 h (trypan blue; Fig. 2C) [3]?
Answer: 54.3 µM
